Assay results as given in patent US20120316071A1 (published 2012).
Where a chain is given by its changes, count along the chain named. Numbers in names are those of the source.

B1: Fab VH1-46_IGHD6-6*01_IGHJ1*01 S102A/S103P/S104F/H111F (APFF) & L6_IGKJ1*01 S31N (Fab, V domains shown)
VH: QVQLVQSGAEVKKPGASVKVSCKASGYTFTSYYMHWVRQAPGQGLEWMGIINPSGGSTSYAQKFQGRVTMTRDTSTSTVYMELSSLRSEDTAVYYCAREEYAPFSAEYFQFWGQGTLVTVSS
VL: EIVLTQSPATLSLSPGERATLSCRASQSVSNYLAWYQQKPGQAPRLLIYDASNRATGIPARFSGSGSGTDFTLTISSLEPEDFAVYYCQQRSNWPPWTFGQGTKVEIKR
notes: Fab made in E. coli; The constant parts (CH1 with His6 and Flag tags from plasmid A, kappa CL from plasmid C) are not added here; also called APFF & S31N
B2: Fab VH1-46_IGHD6-6*01_IGHJ1*01 S102A/S103P/S104F/H111F (APFF) & L6_IGKJ1*01 S30Q (Fab, V domains shown)
VH: B1 VH
VL: B1 VL with S30Q, N31S
notes: Fab made in E. coli; The constant parts (CH1 with His6 and Flag tags from plasmid A, kappa CL from plasmid C) are not added here; also called APFF & S30Q
B3: Fab VH1-46_IGHD6-6*01_IGHJ1*01 S102A/S103P/S104F/H111F (APFF) & L6_IGKJ1*01 S30G (Fab, V domains shown)
VH: B1 VH
VL: B1 VL with S30G, N31S
notes: Fab made in E. coli; The constant parts (CH1 with His6 and Flag tags from plasmid A, kappa CL from plasmid C) are not added here; also called APFF & S30G
B4: Fab VH1-46_IGHD6-6*01_IGHJ1*01 S102A/S103P/S104F/H111F (APFF) & L6_IGKJ1*01 S30N (Fab, V domains shown)
VH: B1 VH
VL: B1 VL with S30N, N31S
notes: Fab made in E. coli; The constant parts (CH1 with His6 and Flag tags from plasmid A, kappa CL from plasmid C) are not added here; also called APFF & S30N
B5: Fab VH1-46_IGHD6-6*01_IGHJ1*01 S102A/S103P/S104F/H111F (APFF) & L6_IGKJ1*01 S31R (Fab, V domains shown)
VH: B1 VH
VL: B1 VL with N31R
notes: Fab made in E. coli; The constant parts (CH1 with His6 and Flag tags from plasmid A, kappa CL from plasmid C) are not added here; also called APFF & S31R
B6: Fab VH1-46_IGHD6-6*01_IGHJ1*01 S102A/S103P/S104F/H111F (APFF) & L6_IGKJ1*01 S31D (Fab, V domains shown)
VH: B1 VH
VL: B1 VL with N31D
notes: Fab made in E. coli; The constant parts (CH1 with His6 and Flag tags from plasmid A, kappa CL from plasmid C) are not added here; also called APFF & S31D
B7: Fab VH1-46_IGHD6-6*01_IGHJ1*01 S102A/S103P/S104F/H111F (APFF) & L6_IGKJ1*01 S31Q (Fab, V domains shown)
VH: B1 VH
VL: B1 VL with N31Q
notes: Fab made in E. coli; The constant parts (CH1 with His6 and Flag tags from plasmid A, kappa CL from plasmid C) are not added here; also called APFF & S31Q
B8: Fab VH1-46_IGHD6-6*01_IGHJ1*01 S102A/S103P/S104F/H111F (APFF) & L6_IGKJ1*01 S31A (Fab, V domains shown)
VH: B1 VH
VL: B1 VL with N31A
notes: Fab made in E. coli; The constant parts (CH1 with His6 and Flag tags from plasmid A, kappa CL from plasmid C) are not added here; also called APFF & S31A
B9: Fab VH1-46_IGHD6-6*01_IGHJ1*01 S102A/S103P/S104F/H111F (APFF) & L6_IGKJ1*01 S30V (Fab, V domains shown)
VH: B1 VH
VL: B1 VL with S30V, N31S
notes: Fab made in E. coli; The constant parts (CH1 with His6 and Flag tags from plasmid A, kappa CL from plasmid C) are not added here; also called APFF & S30V
B10: Fab VH1-46_IGHD6-6*01_IGHJ1*01 S102A/S103P/S104F/H111F (APFF) & L6_IGKJ1*01 S31M (Fab, V domains shown)
VH: B1 VH
VL: B1 VL with N31M
notes: Fab made in E. coli; The constant parts (CH1 with His6 and Flag tags from plasmid A, kappa CL from plasmid C) are not added here; also called APFF & S31M
B11: Fab VH1-46_IGHD6-6*01_IGHJ1*01 S102A/S103P/S104F/H111F (APFF) & L6_IGKJ1*01 S31P (Fab, V domains shown)
VH: B1 VH
VL: B1 VL with N31P
notes: Fab made in E. coli; The constant parts (CH1 with His6 and Flag tags from plasmid A, kappa CL from plasmid C) are not added here; also called APFF & S31P
B12: Fab VH1-46_IGHD6-6*01_IGHJ1*01 S102A/S103P/S104F/H111F (APFF) & L6_IGKJ1*01 S30T (Fab, V domains shown)
VH: B1 VH
VL: B1 VL with S30T, N31S
notes: Fab made in E. coli; The constant parts (CH1 with His6 and Flag tags from plasmid A, kappa CL from plasmid C) are not added here; also called APFF & S30T
B13: Fab VH1-46_IGHD6-6*01_IGHJ1*01 S102A/S103P/S104F/H111F (APFF) & L6_IGKJ1*01 S31L (Fab, V domains shown)
VH: B1 VH
VL: B1 VL with N31L
notes: Fab made in E. coli; The constant parts (CH1 with His6 and Flag tags from plasmid A, kappa CL from plasmid C) are not added here; also called APFF & S31L
B14: Fab VH1-46_IGHD6-6*01_IGHJ1*01 S102A/S103P/S104F/H111F (APFF) & L6_IGKJ1*01 S31F (Fab, V domains shown)
VH: B1 VH
VL: B1 VL with N31F
notes: Fab made in E. coli; The constant parts (CH1 with His6 and Flag tags from plasmid A, kappa CL from plasmid C) are not added here; also called APFF & S31F
B15: Fab VH1-46_IGHD6-6*01_IGHJ1*01 S102A/S103P/S104F/H111F (APFF) & L6_IGKJ1*01 S31I (Fab, V domains shown)
VH: B1 VH
VL: B1 VL with N31I
notes: Fab made in E. coli; The constant parts (CH1 with His6 and Flag tags from plasmid A, kappa CL from plasmid C) are not added here; also called APFF & S31I
B16: Fab VH1-46_IGHD6-6*01_IGHJ1*01 S102A/S103P/S104F/H111F (APFF) & L6_IGKJ1*01 S30P (Fab, V domains shown)
VH: B1 VH
VL: B1 VL with S30P, N31S
notes: Fab made in E. coli; The constant parts (CH1 with His6 and Flag tags from plasmid A, kappa CL from plasmid C) are not added here; also called APFF & S30P
B17: Fab VH1-46_IGHD6-6*01_IGHJ1*01 S102A/S103P/S104F/H111F (APFF) & L6_IGKJ1*01 S31Y (Fab, V domains shown)
VH: B1 VH
VL: B1 VL with N31Y
notes: Fab made in E. coli; The constant parts (CH1 with His6 and Flag tags from plasmid A, kappa CL from plasmid C) are not added here; also called APFF & S31Y
B18: Fab VH1-46_IGHD6-6*01_IGHJ1*01 S102A/S103P/S104F/H111F (APFF) & L6_IGKJ1*01 S31H (Fab, V domains shown)
VH: B1 VH
VL: B1 VL with N31H
notes: Fab made in E. coli; The constant parts (CH1 with His6 and Flag tags from plasmid A, kappa CL from plasmid C) are not added here; also called APFF & S31H
B19: Fab VH1-46_IGHD6-6*01_IGHJ1*01 S102A/S103P/S104F/H111F (APFF) & L6_IGKJ1*01 S31E (Fab, V domains shown)
VH: B1 VH
VL: B1 VL with N31E
notes: Fab made in E. coli; The constant parts (CH1 with His6 and Flag tags from plasmid A, kappa CL from plasmid C) are not added here; also called APFF & S31E
B20: Fab VH1-46_IGHD6-6*01_IGHJ1*01 S102A/S103P/S104F/H111F (APFF) & L6_IGKJ1*01 S31V (Fab, V domains shown)
VH: B1 VH
VL: B1 VL with N31V
notes: Fab made in E. coli; The constant parts (CH1 with His6 and Flag tags from plasmid A, kappa CL from plasmid C) are not added here; also called APFF & S31V
B21: Fab VH1-46_IGHD6-6*01_IGHJ1*01 S102A/S103P/S104F/H111F (APFF) & L6_IGKJ1*01 S31K (Fab, V domains shown)
VH: B1 VH
VL: B1 VL with N31K
notes: Fab made in E. coli; The constant parts (CH1 with His6 and Flag tags from plasmid A, kappa CL from plasmid C) are not added here; also called APFF & S31K

Molecular target: T1, Recombinant Human DLL4 (delta-like protein 4) (human, UniProt Q9NR61 27-524)
T1 construct: Bought recombinant human DLL4 (R&D Systems Cat#1506-D4/CF); also called rHuman DLL4
Test: ECL (MSD) multispot binding assay, antigen spotted on plate, Fab in solution;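 further: purified Fab incubated 1 h at 20 °C, detected via TAG-labelled antibody electrochemiluminescence, antigen spot compared with the blank in the same well, ratio at least 4 counted as hit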

| ECL signal | Signal/Blank | Binder |
| --- | --- | --- |
| 178000 | 605 | B1 |
| 197000 | 602 | B2 |
| 178000 | 506 | B3 |
| 175000 | 497 | B4 |
| 166000 | 558 | B5 |
| – | 313 | B6 |
| 165000 | 406 | B7 |
| – | 882 | B8 |
| 141000 | 497 | B9 |
| – | 378 | B10 |
| – | 156 | B11 |
| 136000 | 348 | B12 |
| – | 373 | B13 |
| – | 459 | B14 |
| – | 541 | B15 |
| 1260 | 4.2 | B16 |
| 188000 | 662 | B17 |
| – | 838 | B18 |
| 171000 | 517 | B19 |
| – | 511 | B20 |
| 179000 | 351 | B21 |
